Target: AD-Myo5 [S. cerevisiae]
Test: yeast two-hybrid (β-galactosidase activity)
Conditions: read off a plot

response (25 °C (no heat shock)) [mU]	response (39 °C (heat shock)) [mU]	Substance
0.34	0.45	She4-BD, wild type mutant S18A [S. cerevisiae] / AD-Myo5 [S. cerevisiae] chain 1 S18A
0.075	0.17	She4-BD, wild type mutant S18E [S. cerevisiae] / AD-Myo5 [S. cerevisiae] chain 1 S18E
0.79	1	human BD-UNC45-SM, wild type mutant S251A [human] / AD-Myo5 [S. cerevisiae] chain 1 S251A
0.29	0.52	human BD-UNC45-SM, wild type mutant S251E [human] / AD-Myo5 [S. cerevisiae] chain 1 S251E

Reference: publication PMC5225067
